pKd: −log10 of the molar value.
How the values were obtained:
[1] = target: PHF-tau (paired helical filament tau isolated from Alzheimer's disease brain) (human) (UniProt P10636); test: SPR ProteOn, PHF-tau
[2] = target: tau seeds from cryopreserved human AD brain tissue (human) (UniProt P10636); test: cell-based or functional assay
[3] = target: tau seeds from GFP-tauP301L-overexpressing HEK cells (UniProt P10636); test: cell-based or functional assay
[4] = target: tau seeds from spinal cords of P301S transgenic animals (human) (UniProt P10636); test: cell-based or functional assay
[5] = target: recombinant human wild-type tau (Example 1) (human) (UniProt P10636); test: SPR Biacore, recombinant tau
[6] = target: PHF-tau (paired helical filament tau isolated from Alzheimer's disease brain) (human) (UniProt P10636); test: SPR ProteOn, PHF-tau capture-coupled via HT7, bivalent model

recombinant human wild-type tau (Example 1) (human), sequence (P10636 other isoform, or with tags, fused parts or gaps limits assumed): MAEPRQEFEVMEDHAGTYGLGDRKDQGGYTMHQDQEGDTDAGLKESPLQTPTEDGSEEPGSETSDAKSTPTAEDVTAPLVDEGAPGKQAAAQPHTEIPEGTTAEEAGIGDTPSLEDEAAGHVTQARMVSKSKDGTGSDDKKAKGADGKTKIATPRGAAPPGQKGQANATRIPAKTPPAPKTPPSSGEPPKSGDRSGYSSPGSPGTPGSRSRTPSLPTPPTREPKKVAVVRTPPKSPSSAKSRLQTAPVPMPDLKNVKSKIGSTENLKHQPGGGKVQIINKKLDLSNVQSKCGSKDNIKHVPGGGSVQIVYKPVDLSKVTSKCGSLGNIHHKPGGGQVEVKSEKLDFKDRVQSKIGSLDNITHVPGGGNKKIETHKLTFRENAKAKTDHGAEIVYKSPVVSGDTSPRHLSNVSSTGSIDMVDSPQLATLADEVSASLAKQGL
PHF-tau (paired helical filament tau isolated from Alzheimer's disease brain) (human), sequence (P10636 other isoform, or with tags, fused parts or gaps limits assumed): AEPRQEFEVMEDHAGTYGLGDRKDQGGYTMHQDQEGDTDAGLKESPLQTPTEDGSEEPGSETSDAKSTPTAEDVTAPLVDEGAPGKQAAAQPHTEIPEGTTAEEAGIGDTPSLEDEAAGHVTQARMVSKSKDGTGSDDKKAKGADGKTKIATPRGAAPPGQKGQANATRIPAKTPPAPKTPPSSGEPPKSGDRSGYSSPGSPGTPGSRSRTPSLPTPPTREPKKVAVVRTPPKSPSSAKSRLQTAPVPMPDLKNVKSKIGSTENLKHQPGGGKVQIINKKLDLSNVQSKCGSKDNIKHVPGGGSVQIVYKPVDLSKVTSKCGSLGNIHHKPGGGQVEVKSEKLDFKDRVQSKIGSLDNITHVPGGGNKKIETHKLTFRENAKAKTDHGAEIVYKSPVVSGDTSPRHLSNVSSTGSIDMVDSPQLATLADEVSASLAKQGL
tau seeds from spinal cords of P301S transgenic animals (human), sequence (P10636 other isoform, or with tags, fused parts or gaps P301S P301S): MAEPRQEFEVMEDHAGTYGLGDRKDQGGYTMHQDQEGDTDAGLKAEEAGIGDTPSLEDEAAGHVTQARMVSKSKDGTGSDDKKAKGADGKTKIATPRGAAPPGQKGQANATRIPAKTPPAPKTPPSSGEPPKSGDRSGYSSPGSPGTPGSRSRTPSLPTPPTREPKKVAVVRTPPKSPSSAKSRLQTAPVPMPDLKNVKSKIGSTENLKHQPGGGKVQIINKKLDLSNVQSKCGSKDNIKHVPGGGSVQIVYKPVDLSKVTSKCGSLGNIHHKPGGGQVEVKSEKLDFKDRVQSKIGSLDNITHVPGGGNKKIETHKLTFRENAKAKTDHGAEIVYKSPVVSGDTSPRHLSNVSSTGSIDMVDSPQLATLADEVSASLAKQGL

pKd [1]	koff [1] [s⁻¹]	kon [1] [M⁻¹ s⁻¹]	FRET/human AD brain homogenate immunodepletion assay, 300 nM antibody (% of negative control) [2]	inhibition of K18 aggregate induction, BRET/GFP-tauP301L co-incubation assay, 300 nM antibody (% of negative control) [3]	FRET/P301S spinal cord immunodepletion assay, 300 nM antibody (% of negative control) [4]	inhibition of K18 aggregate induction, FRET/P301S spinal cord co-incubation assay, 300 nM antibody (% of negative control) [4]	pKd [5]	koff [5] [s⁻¹]	kon [5] [M⁻¹ s⁻¹]	inhibition of K18 aggregate induction, BRET/GFP-tauP301L co-incubation assay, 166.67 nM antibody (% of negative control) [3]	inhibition of K18 aggregate induction, FRET/P301S spinal cord co-incubation assay, 89.99 nM antibody (% of negative control) [4]	pKd [6]	koff [6] [s⁻¹]	kon [6] [M⁻¹ s⁻¹]	Substance
7.59	0.023	889000													AT8 Fab
10.04	0.000211	2.3e+06	80.7	10.5	96.7	26.4									AT8 mAb (hyb) (antibody)
9.88	9.26e-05	706000	83		99.2		8.52	0.0118	3.86e+06	65.4	73.5	9.71	0.00011	569000	HT7 (antibody)

Reference: US20230047413A1
